Measured values published in the supplement of paper PMC7125110.
± gives the standard error. For some assays here: Variants at the floor of the assay were thinned out.

B1: glmS ribozyme (parent)
chain: AUAAAAGCGCCAGAACUACAGAAAUGUAGUUGACGAGGAGGAGGUUUAUCGAAUUUUCGGCGGAUGCCUCCAAA

What was measured:
Conditions in all cases: with glucosamine-6-phosphate
[1] = variants of: B1; assay: kcat; higher = faster cleavage; RNA array
Outline: (§1)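 Using a hybridised Cy3 probe at 37 °C, barcoded ribozyme variants transcribed in situ by E. coli RNA polymerase on sequenced MiSeq chips were monitored across tiles imaged over ~14 h. The flow contained glucosamine-6-phosphate from 40 μM to 10 mM in HEPES/KCl/Mg(OAc)2 buffer. Signals were normalised to baseline and to non-cleaving reference variants before per-tile medians were fit to one- or two-exponential decays to yield kobs. Weighted Michaelis–Menten fits across concentrations gave kcat and KM.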

[2] = variants of: B1; assay: self-cleavage kobs at 10000 uM GlcN6P; higher = faster cleavage; RNA array
Outline: as §1

[3] = variants of: B1; assay: self-cleavage kobs at 40 uM GlcN6P; higher = faster cleavage; RNA array
Outline: as §1

[4] = variants of: B1; assay: self-cleavage kobs at 160 uM GlcN6P; higher = faster cleavage; RNA array
Outline: as §1

[5] = variants of: B1; assay: self-cleavage kobs at 640 uM GlcN6P; higher = faster cleavage; RNA array
Outline: as §1

[6] = variants of: B1; assay: self-cleavage kobs at 2500 uM GlcN6P; higher = faster cleavage; RNA array
Outline: as §1

[7] = variants of: B1; assay: KM; higher = weaker cofactor use; RNA array
Outline: as §1

## AUAAAUGCGCCAGAACUACAGAAAUGUAGUUGACGAGGAGGAGGUUUAUGGUAUUUUCGGGGGAUGCUUCCAAA [A6U C50G A52U C61G C68U]
[1]
  kcat: 3.87e-05 ± 1.1e-05 s⁻¹
[2]
  self-cleavage kobs at 10000 uM GlcN6P: 4.51e-05 ± 1.6e-05 s⁻¹

## AUAAAAGCGCCAGAACUACAGAAAUGUACUUGACGAGGGGGAGGUUUAUCGAAUUUUCGGCGGAUGCCUCCAAA [G29C A39G]
[1]
  kcat: 0.00594 ± 0.0022 s⁻¹
[3]
  self-cleavage kobs at 40 uM GlcN6P: 0.000107 ± 1.2e-05 s⁻¹
[4]
  self-cleavage kobs at 160 uM GlcN6P: 0.000305 ± 6.8e-05 s⁻¹
[5]
  self-cleavage kobs at 640 uM GlcN6P: 0.000768 ± 0.00012 s⁻¹
[6]
  self-cleavage kobs at 2500 uM GlcN6P: 0.00223 ± 0.00037 s⁻¹
[2]
  self-cleavage kobs at 10000 uM GlcN6P: 0.00525 ± 0.00064 s⁻¹

## AUAAAAGCGCCAGAACUACAGAAAUGUAGUUGACGAGGAGGAGGUUUAUCGAAUUUUCGGCCGAUGCCACCAAA [G62C U69A]
[1]
  kcat: 1.17e-05 ± 3.8e-06 s⁻¹

## AUAAAAGCGCCAGCACUACAGAAAUGUAGUUGACGAGGAGGAGGUUUAUCGAAUUUUCGGCGGAUGCCUCAAAA [A14C C71A]
[1]
  kcat: 0.00106 ± 0.00051 s⁻¹
[3]
  self-cleavage kobs at 40 uM GlcN6P: 3.61e-05 ± 1.7e-05 s⁻¹
[4]
  self-cleavage kobs at 160 uM GlcN6P: 0.000121 ± 3.2e-05 s⁻¹
[5]
  self-cleavage kobs at 640 uM GlcN6P: 0.000194 ± 3.2e-05 s⁻¹
[6]
  self-cleavage kobs at 2500 uM GlcN6P: 0.000353 ± 5.6e-05 s⁻¹
[2]
  self-cleavage kobs at 10000 uM GlcN6P: 0.000984 ± 0.00013 s⁻¹

## AUAAAAGCGCCAGAACUACAGAAAUGUAGUUGACGAGGAGGAGGUUUAUCGAAUUUUCGGCGAAUGCUUCCAAA [G63A C68U]
[1]
  kcat: < 1e-05 s⁻¹
[3]
  self-cleavage kobs at 40 uM GlcN6P: < 1e-05 s⁻¹

## AUAAAAGCGCCAGAACUACAGAAAUGUAUUUGACGAGGAGGAGGUUUAUCGAAUUUUCGGCGGAUGUCUCCAAA [G29U C67U]
[1]
  kcat: 0.000984 ± 0.0002 s⁻¹
[7]
  KM: 1.05 ± 0.32 mM
[3]
  self-cleavage kobs at 40 uM GlcN6P: 4.55e-05 ± 8.7e-06 s⁻¹
[4]
  self-cleavage kobs at 160 uM GlcN6P: 0.000126 ± 1.3e-05 s⁻¹
[5]
  self-cleavage kobs at 640 uM GlcN6P: 0.000384 ± 5.4e-05 s⁻¹
[6]
  self-cleavage kobs at 2500 uM GlcN6P: 0.000575 ± 8.5e-05 s⁻¹
[2]
  self-cleavage kobs at 10000 uM GlcN6P: 0.0012 ± 0.00018 s⁻¹

## AUAAAAGCGGCAGAACUACAGAAAUGUAGUUCACGAGGAGGAGGUUUAUCGAAUUUUCGGCGGAUGCCUCCAAA [C10G G32C]
[1]
  kcat: < 1e-05 s⁻¹
[4]
  self-cleavage kobs at 160 uM GlcN6P: < 1e-05 s⁻¹
[5]
  self-cleavage kobs at 640 uM GlcN6P: < 1e-05 s⁻¹

## AUAAAAGCGCCAAAACUACAGAAAUGUAGGUGACGAGGAGGAGGUUUAUCGAAUUUUCGGCGGAUGCCUCCAAA [G13A U30G]
[1]
  kcat: 0.000441 ± 4.8e-05 s⁻¹
[7]
  KM: 6.05 ± 1.1 mM
[5]
  self-cleavage kobs at 640 uM GlcN6P: 3.9e-05 ± 1e-05 s⁻¹
[6]
  self-cleavage kobs at 2500 uM GlcN6P: 0.000144 ± 3.3e-05 s⁻¹
[2]
  self-cleavage kobs at 10000 uM GlcN6P: 0.000271 ± 3.9e-05 s⁻¹

## AUAAAAGCGCCAGAACUACAGAAAUGUAGGUGACGAGGAGGAGGUUUAUCGAAAUUUCGGCGGAUGCCUCCAAA [U30G U54A]
[1]
  kcat: 0.0115 ± 0.0045 s⁻¹
[3]
  self-cleavage kobs at 40 uM GlcN6P: 0.000247 ± 3.2e-05 s⁻¹
[4]
  self-cleavage kobs at 160 uM GlcN6P: 0.000384 ± 7.9e-05 s⁻¹
[5]
  self-cleavage kobs at 640 uM GlcN6P: 0.00201 ± 0.0004 s⁻¹
[6]
  self-cleavage kobs at 2500 uM GlcN6P: 0.00795 ± 0.0017 s⁻¹
[2]
  self-cleavage kobs at 10000 uM GlcN6P: 0.00853 ± 0.0011 s⁻¹
